Experimental data published in US20210292396A1.
Numbering of substitutions follows the chain as printed.

Columns and labels:
Experiment in all cases: cell-based or functional assay
[1] = target: Env of HIV isolate 0330.v4.c3 (clade A) (HIV)
[2] = target: Env of HIV isolate 5768.04 (clade B) (HIV)
[3] = target: HIV Env of isolate DU172.17 (HIV)
[4] = target: Env of HIV isolate CNE40 (clade BC) (HIV)
[5] = target: Env of HIV isolate THRO.18 (clade B) (HIV)
[6] = target: Env of HIV isolate 6095.v1.c10 (clade ACD) (HIV)
[7] = target: HIV Env of isolate ZM197.7 (HIV)
[8] = target: Env of HIV isolate 231965.c01 (clade D) (HIV)
[9] = target: Env of HIV isolate 398-F1.F6.20 (clade A) (HIV)
[10] = target: Env of HIV isolate T250-4 (clade AG) (HIV)
[11] = target: Env of HIV isolate 16936-2.21 (clade C) (HIV)
[12] = target: Env of HIV isolate CNE8 (clade AE) (HIV)
[13] = target: Env of HIV isolate YU2.DG (clade B) (HIV)
[14] = target: Env of HIV isolate 96ZM651.02 (clade C) (HIV)
[15] = target: Env of HIV isolate CNE10 (clade B) (HIV)
[16] = target: Env of HIV isolate 6471.v1.c16 (clade C) (HIV)
[17] = target: Env of HIV isolate T255-34 (clade AG) (HIV)
[18] = target: HIV Env of isolate CNE21 (HIV)
[19] = target: Env of HIV isolate CNE14 (clade B) (HIV)
[20] = target: Env of HIV isolate 001428-2.42 (clade C) (HIV)
[21] = target: Env of HIV isolate JRCSF.JB (clade B) (HIV)
[22] = target: Env of HIV isolate 7165.18 (clade B) (HIV)
[23] = target: Env of HIV isolate BI369.9A (clade A) (HIV)
[24] = target: HIV Env of isolate UG021.16 (HIV)
[25] = target: HIV Env of isolate 426c (HIV)
[26] = target: Env of HIV isolate REJO.67 (clade B) (HIV)
[27] = target: HIV Env of isolate BR025.9 (HIV)
[28] = target: Env of HIV isolate CNE19 (clade BC) (HIV)
[29] = target: Env of HIV isolate T257-31 (clade AG) (HIV)
[30] = target: HIV Env of isolate CNE40 (HIV)
[31] = target: HIV Env of isolate 26191-2.48 (HIV)
[32] = target: Env of HIV isolate BX08.16 (clade B) (HIV)
[33] = target: Env of HIV isolate BJOX025000.01.1 (clade AE) (HIV)
[34] = target: Env of HIV isolate DJ263.8 (clade AG) (HIV)
[35] = target: Env of HIV isolate X1254.c3 (clade G) (HIV)
[36] = target: Env of HIV isolate MS208.A1 (clade A) (HIV)
[37] = target: HIV Env of isolate UG024.2 (HIV)
[38] = target: HIV Env of isolate 0077.v1.c16 (HIV)
[39] = target: Env of HIV isolate MN.3 (clade B) (HIV)
[40] = target: HIV Env of isolate 6405.v4.c34 (HIV)
[41] = target: HIV Env of isolate P0402.c2.11 (HIV)
[42] = target: Env of HIV isolate CNE12 (clade B) (HIV)
[43] = target: Env of HIV isolate ZM197.7 (clade C) (HIV)
[44] = target: HIV Env of isolate X2131.C1.B5 (HIV)
[45] = target: HIV Env of isolate 16936-2.21 (HIV)
[46] = target: Env of HIV isolate ZM109.4 (clade C) (HIV)
[47] = target: HIV Env of isolate NKU3006.ec1 (HIV)
[48] = target: HIV Env of isolate Ce1176.A3 (HIV)
[49] = target: HIV Env of isolate ZM233.6 (HIV)
[50] = target: Env of HIV isolate BJOX009000.02.4 (clade AE) (HIV)

B1: ePGT121.18 (ePGT121.18.H1 VH and ePGT121.17.L1 VL) (antibody, V domains shown)
VH: QMQLQESGPGLVKPGETLSLTCSVSGASISSSYWSWLRETPGKGLEWIGYTHHSGDTNYAPSLKSRVHLGLHPSKNQVSLSLTSVTAADTAVYYCARTLHGRRIYGVVAFNEYYTYFYWPTWGKGTQVTVSS
VL: SDISVAPGETVRITCGGESIGSRAVQWYQHRPGQAPRLIIYNNQDRPPGIPERFSGSPDIDFGTTATLTISNVEAGDEATYYCHIWDSRRPTNWELGPGTTLTVL
IC50, pseudovirus neutralization [1]: 3 ng/mL | IC50, pseudovirus neutralization [2]: 4 ng/mL | IC80, pseudovirus neutralization (M1) [3]: 5 ng/mL | IC80, pseudovirus neutralization (M2) [3]: 5 ng/mL | IC50, pseudovirus neutralization [4]: 15 ng/mL | IC50, pseudovirus neutralization [5]: > 50000 ng/mL | IC50, pseudovirus neutralization [6]: 6 ng/mL | IC80, pseudovirus neutralization (M1) [7]: > 50000 ng/mL | IC80, pseudovirus neutralization (M2) [7]: > 50000 ng/mL | IC50, pseudovirus neutralization [8]: 9170 ng/mL | IC50, pseudovirus neutralization [9]: 3 ng/mL | IC50, pseudovirus neutralization [10]: 0.8 ng/mL | IC50, pseudovirus neutralization [11]: 2 ng/mL | IC50, pseudovirus neutralization [12]: > 50000 ng/mL | IC50, pseudovirus neutralization [13]: 3 ng/mL | IC50, pseudovirus neutralization [14]: 0.7 ng/mL | IC50, pseudovirus neutralization [15]: 2 ng/mL | IC50, pseudovirus neutralization [16]: 378 ng/mL | IC50, pseudovirus neutralization [17]: 16 ng/mL | IC80, pseudovirus neutralization (M1) [18]: 2 ng/mL | IC80, pseudovirus neutralization (M2) [18]: 2 ng/mL | IC50, pseudovirus neutralization [19]: 1 ng/mL | IC50, pseudovirus neutralization [20]: 1 ng/mL | IC50, pseudovirus neutralization [21]: 3 ng/mL | IC50, pseudovirus neutralization [22]: 1 ng/mL | IC50, pseudovirus neutralization [23]: 1 ng/mL | IC80, pseudovirus neutralization (M1) [24]: 20 ng/mL | IC80, pseudovirus neutralization (M2) [24]: 19 ng/mL | IC80, pseudovirus neutralization (M1) [25]: 302 ng/mL | IC80, pseudovirus neutralization (M2) [25]: 337 ng/mL | IC50, pseudovirus neutralization [26]: 731 ng/mL | IC80, pseudovirus neutralization (M1) [27]: 4 ng/mL | IC80, pseudovirus neutralization (M2) [27]: 4 ng/mL | IC50, pseudovirus neutralization [28]: 1 ng/mL | IC50, pseudovirus neutralization [29]: > 50000 ng/mL | IC80, pseudovirus neutralization (M1) [30]: 47 ng/mL | IC80, pseudovirus neutralization (M2) [30]: 47 ng/mL | IC80, pseudovirus neutralization (M1) [31]: 8 ng/mL | IC80, pseudovirus neutralization (M2) [31]: 13 ng/mL | IC50, pseudovirus neutralization [32]: 3 ng/mL | IC50, pseudovirus neutralization [33]: > 50000 ng/mL | IC50, pseudovirus neutralization [34]: 2 ng/mL | IC50, pseudovirus neutralization [35]: 2 ng/mL | IC50, pseudovirus neutralization [36]: > 50000 ng/mL | IC80, pseudovirus neutralization (M1) [37]: > 50000 ng/mL | IC80, pseudovirus neutralization (M2) [37]: > 50000 ng/mL | IC80, pseudovirus neutralization (M1) [38]: > 50000 ng/mL | IC80, pseudovirus neutralization (M2) [38]: > 50000 ng/mL | IC50, pseudovirus neutralization [39]: 2 ng/mL | IC80, pseudovirus neutralization (M1) [40]: 4 ng/mL | IC80, pseudovirus neutralization (M2) [40]: 5 ng/mL | IC80, pseudovirus neutralization (M1) [41]: 4 ng/mL | IC80, pseudovirus neutralization (M2) [41]: 5 ng/mL | IC50, pseudovirus neutralization [42]: 2 ng/mL | IC50, pseudovirus neutralization [43]: > 50000 ng/mL | IC80, pseudovirus neutralization (M1) [44]: 2 ng/mL | IC80, pseudovirus neutralization (M2) [44]: 3 ng/mL | IC80, pseudovirus neutralization (M1) [45]: 3 ng/mL | IC80, pseudovirus neutralization (M2) [45]: 5 ng/mL | IC50, pseudovirus neutralization [46]: 7260 ng/mL | IC80, pseudovirus neutralization (M1) [47]: > 50000 ng/mL | IC80, pseudovirus neutralization (M2) [47]: > 50000 ng/mL | IC80, pseudovirus neutralization (M1) [48]: 6 ng/mL | IC80, pseudovirus neutralization (M2) [48]: 6 ng/mL | IC80, pseudovirus neutralization (M1) [49]: 24 ng/mL | IC80, pseudovirus neutralization (M2) [49]: 24 ng/mL | IC50, pseudovirus neutralization [50]: 42 ng/mL

B2: ePGT121.18.17 (ePGT121.18.H17 VH and ePGT121.17.L1 VL) (antibody, V domains shown)
VH: B1 VH with H68T, L69I, H72D
VL: B1 VL
IC50, pseudovirus neutralization [1]: 12 ng/mL | IC50, pseudovirus neutralization [2]: 29 ng/mL | IC80, pseudovirus neutralization [3]: 18 ng/mL | IC50, pseudovirus neutralization [4]: 36 ng/mL | IC50, pseudovirus neutralization [5]: > 50000 ng/mL | IC50, pseudovirus neutralization [6]: 45 ng/mL | IC80, pseudovirus neutralization [7]: > 50000 ng/mL | IC50, pseudovirus neutralization [8]: > 50000 ng/mL | IC50, pseudovirus neutralization [9]: 5 ng/mL | IC50, pseudovirus neutralization [10]: 2 ng/mL | IC50, pseudovirus neutralization [11]: 4 ng/mL | IC50, pseudovirus neutralization [12]: > 50000 ng/mL | IC50, pseudovirus neutralization [13]: 11 ng/mL | IC50, pseudovirus neutralization [14]: 3 ng/mL | IC50, pseudovirus neutralization [15]: 4 ng/mL | IC50, pseudovirus neutralization [16]: 1090 ng/mL | IC50, pseudovirus neutralization [17]: 32 ng/mL | IC80, pseudovirus neutralization [18]: 5 ng/mL | IC50, pseudovirus neutralization [19]: 3 ng/mL | IC50, pseudovirus neutralization [20]: 4 ng/mL | IC50, pseudovirus neutralization [21]: 7 ng/mL | IC50, pseudovirus neutralization [22]: 6 ng/mL | IC50, pseudovirus neutralization [23]: 4 ng/mL | IC80, pseudovirus neutralization [24]: 78 ng/mL | IC80, pseudovirus neutralization [25]: 1000 ng/mL | IC50, pseudovirus neutralization [26]: 1430 ng/mL | IC80, pseudovirus neutralization [27]: 8 ng/mL | IC50, pseudovirus neutralization [28]: 3 ng/mL | IC50, pseudovirus neutralization [29]: > 50000 ng/mL | IC80, pseudovirus neutralization [30]: 130 ng/mL | IC80, pseudovirus neutralization [31]: 25 ng/mL | IC50, pseudovirus neutralization [32]: 4 ng/mL | IC50, pseudovirus neutralization [33]: > 50000 ng/mL | IC50, pseudovirus neutralization [34]: 14 ng/mL | IC50, pseudovirus neutralization [35]: 6 ng/mL | IC50, pseudovirus neutralization [36]: > 50000 ng/mL | IC80, pseudovirus neutralization [37]: > 50000 ng/mL | IC80, pseudovirus neutralization [38]: > 50000 ng/mL | IC50, pseudovirus neutralization [39]: 4 ng/mL | IC80, pseudovirus neutralization [40]: 12 ng/mL | IC80, pseudovirus neutralization [41]: 9 ng/mL | IC50, pseudovirus neutralization [42]: 4 ng/mL | IC50, pseudovirus neutralization [43]: > 50000 ng/mL | IC80, pseudovirus neutralization [44]: 7 ng/mL | IC80, pseudovirus neutralization [45]: 11 ng/mL | IC50, pseudovirus neutralization [46]: 8440 ng/mL | IC80, pseudovirus neutralization [47]: > 50000 ng/mL | IC80, pseudovirus neutralization [48]: 17 ng/mL | IC80, pseudovirus neutralization [49]: 65 ng/mL | IC50, pseudovirus neutralization [50]: 156 ng/mL

B3: ePGT121.15.H2.L1 (antibody, V domains shown)
VH: B1 VH with Y113W, Y114F, P120E, T121V
VL: B1 VL with T14S, P32A, R37K, S71T, E95V, L96F, P98G
neutralization (Table 6 value) [18]: 0.000874
